Measurements published in paper PMC10484734, “TLK1-mediated RAD54 phosphorylation spatio-temporally regulates Homologous Recombination Repair” (Nucleic Acids Research, 2023).
Where a chain is given by its changes, count along the chain named.

Legend:
RAD54-T700D, recombinant = target: T1, RAD54-T700D, recombinant (human, UniProt Q92698 1-747, T700D); test: pull-down; purified RAD54 forms with RAD51; reactions eluted from beads, eluate and supernatant on silver-stained gels, quantified; which protein was held on the beads is not told; conditions: both partners purified
T1 construct: human RAD54 (RAD54L) with the phosphomimic change T700D; also called purified RAD54-T700D; CTD mutant; source: recombinant, purified
T1 sequence (looked up): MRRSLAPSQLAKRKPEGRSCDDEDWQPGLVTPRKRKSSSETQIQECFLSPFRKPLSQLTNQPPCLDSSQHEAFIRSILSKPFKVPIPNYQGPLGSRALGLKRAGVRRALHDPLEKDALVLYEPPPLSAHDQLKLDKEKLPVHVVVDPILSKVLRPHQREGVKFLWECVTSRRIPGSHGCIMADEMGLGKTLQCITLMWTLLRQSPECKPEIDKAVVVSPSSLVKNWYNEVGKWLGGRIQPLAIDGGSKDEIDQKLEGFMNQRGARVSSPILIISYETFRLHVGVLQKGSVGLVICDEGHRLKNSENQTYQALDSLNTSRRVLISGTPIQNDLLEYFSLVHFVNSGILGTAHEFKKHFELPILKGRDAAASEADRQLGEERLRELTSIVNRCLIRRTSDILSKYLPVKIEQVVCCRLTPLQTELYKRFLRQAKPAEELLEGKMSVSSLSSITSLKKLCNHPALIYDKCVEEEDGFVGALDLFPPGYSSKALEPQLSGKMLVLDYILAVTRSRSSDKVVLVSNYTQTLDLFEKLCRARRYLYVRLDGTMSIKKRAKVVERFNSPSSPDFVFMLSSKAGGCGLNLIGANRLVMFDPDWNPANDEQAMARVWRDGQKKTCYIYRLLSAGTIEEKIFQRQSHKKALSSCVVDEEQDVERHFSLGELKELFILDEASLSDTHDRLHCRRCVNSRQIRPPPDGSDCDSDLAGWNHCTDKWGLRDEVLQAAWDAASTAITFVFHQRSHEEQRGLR

[1] = target: T2, RAD54-T41, T59D (RAD54-T2D), recombinant (human, UniProt Q92698 1-747, T41D | T59D); test: as above; conditions: both partners purified
T2 construct: human RAD54 (RAD54L) with the phosphomimic changes T41D and T59D; also called NTD phosphomimic; source: recombinant, purified
T2 sequence (looked up): T1 sequence (looked up) with T41D, T59D, D700T

B1: recombinant human RAD51 (natural protein, UniProt Q06609 1-339, looked up)
chain: MAMQMQLEANADTSVEEESFGPQPISRLEQCGINANDVKKLEEAGFHTVEAVAYAPKKELINIKGISEAKADKILAEAAKLVPMGFTTATEFHQRRSEIIQITTGSKELDKLLQGGIETGSITEMFGEFRTGKTQICHTLAVTCQLPIDRGGGEGKAMYIDTEGTFRPERLLAVAERYGLSGSDVLDNVAYARAFNTDHQTQLLYQASAMMVESRYALLIVDSATALYRTDYSGRGELSARQMHLARFLRMLLRLADEFGVAVVITNQVVAQVDGAAMFAADPKKPIGGNIIAHASTTRLYLRKGRGETRICKIYDSPCLPEAEAMFAINADGVGDAKD
notes: human RAD51 recombinase; also called rc-RAD51
Question: What does the source list for B1?
Answer: binding result (RAD54-T700D, recombinant): binds; binding result [1]: binds
